{
  "source": "patent US20030022275",
  "about": "“HUMAN NK-3 RELATED PROSTATE SPECIFIC GENE-1” (published 2003)",
  "binders": {"B1": {"name": "C site (NKX2.1 consensus, CAAG core) (dsDNA)", "DNA 1": "CACTGCCCAGTCAAGTGTTCTTGA", "DNA 2": "TCAAGAACACTTGACTGGGCAGTG"}, "B2": {"name": "mutated C site (CACG) (dsDNA)", "DNA 1": "CACTGCCCAGTCACGTGTTCGTGA", "DNA 2": "TCACGAACACGTGACTGGGCAGTG"}, "B3": {"name": "site 6-19 (mutated TAAT core) (dsDNA)", "DNA 1": "ACACTACTTGGAGGC", "DNA 2": "GCCTCCAAGTAGTGT"}},
  "key": {"[1]": {"molecular_target": "T1, NKX3.1 homeodomain (NKX3.1HD) (Homo sapiens, UniProt Q99801 SEQ:122-188)", "experiment": "EMSA; human protein stated to behave identically to murine in DNA binding", "conditions": "tags: N-terminal 6xHis (pQE-9, E. coli); label: 32P", "description": "(§1) The DNA binding experiments were performed as follows. Briefly, increasing amounts of protein were incubated in binding buffer [10 mM Tris-HCl ([…]), 50 mM NaCl, 5% glycerol, 5% sucrose, 0.2 mM EDTA, 7.5 mM MgCl₂, 0.5 mg/mL bovine serum albumin, 0.1% NP-40, 10 mM DTT, 500 μg of poly-didC] with 4×10⁴ cpm of ³²P-labeled, double stranded oligonucleotide for 20 min at room temperature. The sequences of the DNA binding sites were as follows (top strand shown):\n(§2) The DNA binding specificity of NKX3.1HD was examined by gel mobility shift analysis using various DNA sites identified for NK-like and Antennapedia-like homeodomains. The DNA sites were as follows: (i) the consensus DNA site for the NKX2.1 homeodomain (TCAAGTG) (Guazzi, S. et al., EMBO J. 9:3631-3639 (1990)) and a mutated version of this site that contains nucleotide substitutions within the CAAG core (TCACGTG); and (ii) the consensus DNA site identified for an Antennapedia-like homeodomain (Msx1) (CTAATTG), a mutated version of this site that contains nucleotide substitutions within the TAAT core (CTACTTG), or one that contains nucleotide substitutions 3′ of the TAAT core (CTAATGG) (Catron, K. M. et al., Mol. Cell. Biol. 13;2354-2365 (1993); Guazzi, S. et al., EMBO J. 9:3631-3639 (1990)). […]"}, "[2]": {"molecular_target": "T1, NKX3.1 homeodomain (NKX3.1HD)", "experiment": "EMSA; human protein stated to behave identically to murine", "conditions": "tags: N-terminal 6xHis (pQE-9, E. coli); label: 32P", "description": "as §1, §2"}},
  "data": [
    {"binder": "B1", "values": [
      {"measurement": "binding result", "setting": "[1]", "value": "binds"}
    ]},
    {"binder": "B2", "values": [
      {"measurement": "binding result", "setting": "[2]", "value": "no binding"}
    ]},
    {"binder": "B3", "values": [
      {"measurement": "binding result", "setting": "[2]", "value": "no binding"}
    ]}
  ]
}
